We go through 1 molecule from article doi:10.1101/334433 (bioRxiv, 2018).

This experiment deals with T1, GST-IRF4 (human, UniProt Q15306 1-451).
T1 sequence (looked up): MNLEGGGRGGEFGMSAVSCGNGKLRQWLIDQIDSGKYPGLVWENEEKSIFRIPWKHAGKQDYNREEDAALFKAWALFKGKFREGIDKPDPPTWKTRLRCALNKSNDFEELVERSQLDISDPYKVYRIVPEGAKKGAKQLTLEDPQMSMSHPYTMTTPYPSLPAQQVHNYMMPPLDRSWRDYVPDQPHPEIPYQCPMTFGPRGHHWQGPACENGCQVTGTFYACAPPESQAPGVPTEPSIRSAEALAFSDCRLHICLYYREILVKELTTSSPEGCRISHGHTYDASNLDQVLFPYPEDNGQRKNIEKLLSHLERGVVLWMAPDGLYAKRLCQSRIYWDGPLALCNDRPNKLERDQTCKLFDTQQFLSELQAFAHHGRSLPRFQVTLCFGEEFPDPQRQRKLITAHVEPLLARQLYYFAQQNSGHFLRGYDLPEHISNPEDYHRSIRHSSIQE
The experiment in a line: pull-down.

B1: purified His-Peli1 (enzyme, human, UniProt Q96FA3 1-418, looked up)
chain: MFSPDQENHPSKAPVKYGELIVLGYNGSLPNGDRGRRKSRFALFKRPKANGVKPSTVHIACTPQAAKAISNKDQHSISYTLSRAQTVVVEYTHDSNTDMFQIGRSTESPIDFVVTDTVPGSQSNSDTQSVQSTISRFACRIICERNPPFTARIYAAGFDSSKNIFLGEKAAKWKTSDGQMDGLTTNGVLVMHPRNGFTEDSKPGIWREISVCGNVFSLRETRSAQQRGKMVEIETNQLQDGSLIDLCGATLLWRTAEGLSHTPTVKHLEALRQEINAARPQCPVGFNTLAFPSMKRKDVVDEKQPWVYLNCGHVHGYHNWGNKEERDGKDRECPMCRSVGPYVPLWLGCEAGFYVDAGPPTHAFSPCGHVCSEKTTAYWSQIPLPHGTHTFHAACPFCAHQLAGEQGYIRLIFQGPLD
As for B1, the binding result was “binds”.
